In the supplement of paper PMC9170038:

Test system: MS2 coat protein
Assay: apparent KD of MS2 coat protein; designed switch direction (-1 OFF switch, 1 ON switch): -1; higher = weaker reporter binding
Summary of the method: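 Each step of the titration lasted 0.8–1.5 h at the lowest concentration and 10–20 min at the highest. The protein, SNAP-549-labelled MS2 coat protein, went from 0.7 or 1.5 nM doubling to 3 µM over RNA switches transcribed on Illumina chips by stalled E. coli RNA polymerase. Normalised cluster fluorescence was curve-fitted, and the per-design median over clusters is given as apparent KD.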

[1] = input ligand: microRNA oligo, concentration not stated
[2] = Eterna round: R95, input ligand: FMN 200 uM
[3] = Eterna round: R95, input ligand: microRNA oligo, concentration not stated
[4] = Eterna round: R95, input ligand: none

| Sequence | apparent KD of MS2 coat protein [1] | apparent KD of MS2 coat protein [2] | apparent KD of MS2 coat protein [3] | apparent KD of MS2 coat protein [4] | apparent KD of MS2 coat protein (input ligand: FMN 200 uM) | apparent KD of MS2 coat protein (input ligand: none) |
| --- | --- | --- | --- | --- | --- | --- |
| CCUCUGUAAGGAUAUACGGAGACCACUGGAAUCAGUGGAAAGUAGAAGGUACAUGAGGAUCACCCAUGUGAGAA [Laveatisce] (Eterna round: R96, puzzle: Exclusion 4) | 0.0679 µM |  |  |  |  |  |
| CCUCUGUAAGGAUAUACGGAGACCACUGGAAUCAGUGGAAAGUAGAAGGUACAUGAGGAUCACCCAUGUGAGAA [Laveatisce] (puzzle: Exclusion 4) |  | 0.0365 µM | 0.0362 µM | 0.0493 µM |  |  |
| CCUCUGUGAGGAUAUUGGCAACACUGCACCCAAUAAAGCGCCGAGAAGGCACAUGAGGAUCACCCAUGUACGCA [Eternabot (L1) Solution 66] (Eterna round: R97, puzzle: Exclusion 4) |  |  |  |  | 0.0224 µM | 0.0184 µM |
| CCUCUUGGGCAAGGAUAUCCUGCGCGGUUCCGGUUCGUGUCUGUCACAUGAGGAUCACCCAUGUGGGAGAAGGUGCCUGCGGUC [Design 78] (Eterna round: R96, puzzle: Exclusion NG 2) | 0.012 µM |  |  |  |  |  |
| CCUUAUUCACAGGAUAUGCUCAUCUAAUGAUGAGCAGAAGGGUGGACAUGAGGAUCACCCAUGUUUAUCAAUGG [Omei Ex6 D5] (Eterna round: R97, puzzle: Exclusion 6) |  |  |  |  | 0.545 µM | 0.749 µM |
| CCUUGUGUUGAGGAUAUGCGCCGGCUCGCUGGCGCAGAAGGCGGCACAUGAGGAUCACCCAUGUCAGUUCGCGG [salish99_ex6_r004_013] (Eterna round: R97, puzzle: Exclusion 6) |  |  |  |  | 0.426 µM | 0.116 µM |
| CGAAGUAGAAACCGAUCCUACAUGAGGAUCACCCAUGUAGCAAGACGUGCACGCGAAGCUCGUCAGACUACCAGAAC [salish99_TOv1_r3_013] (puzzle: Sensor v3, turn-off variant 1) |  | 0.312 µM | 0.332 µM | 0.42 µM |  |  |
| CGAGCUAAUGUGAGGAUAUACCUAUGGAUACAUAGGUAGAAGGCACAUGAGGAUCACCCAUGUCCUAUAGCUCG [jl-bmx4-4.55] (Eterna round: R97, puzzle: Brourd's mod of Exclusion 4) |  |  |  |  | 0.241 µM | 0.304 µM |
| CGAGUGUAAGGAUAUUCGGCGCCAGGGAACGACCUGGCGUAGAAGAAGGUACAUGAGGAUCACCCAUGUGGUUA [Issobi] (puzzle: Exclusion 4) |  |  | 0.142 µM |  |  |  |
| CGAUAAAUGACAGGAUAUUACGCUAAUUGGGACCCUUAACCGACAUGAGGAUCACCCAUGUUUUAUAAGAAGGGUCGUUUGUCA [Eternabot solution 47] (Eterna round: R96, puzzle: Exclusion NG 2) | 0.0112 µM |  |  |  | 0.021 µM | 0.0132 µM |
| CGAUAUUAUGUCAGGAUAUACAUUGCGAAAGCAAUGUAGAAGGGACAUGAGGAUCACCCAUGUCCUAACUAUCG [Omei A 2] (puzzle: Brourd's mod of Exclusion 4) |  |  | 0.0129 µM |  |  |  |
| CGAUGCUCGAGUCGACAUGAGGAUCACCCAUGUAGAGUUAGCGAGGAUAUCGGAGACACAUAGUAUGAGAAGGCGCGAACCUGA [Ex NG3 #19] (Eterna round: R96, puzzle: Exclusion NG 3) | 0.0123 µM |  |  |  | 0.0362 µM | 0.0167 µM |
| CGAUGUGGAGUGAGGAUAUCGUGUUCGAAAGAACGUGAGAAGGCACAUGAGGAUCACCCAUGUGAUACAUGUCG [Omei Ex4B A16] (Eterna round: R97, puzzle: Brourd's mod of Exclusion 4) |  |  |  |  | 0.0922 µM | 0.0246 µM |
| CGCAGACAUGAGGAUCACCCAUGUCAGGAUAUACCUCAUAGCACCAGCUUAUGUAAGGGUAGAAGGGACUUGGA [Eternabot (L1) Solution 81] (Eterna round: R97, puzzle: Exclusion 1) |  |  |  |  | 0.0861 µM | 0.0568 µM |
| CGCCUCAGAGGAUAUACUACGGUUUCCUCAUGAUGCGGCCAACAUGAGGAUCACCCAUGUAGAAGGCUGAGAAA [EX2 A.5] (Eterna round: R97, puzzle: Exclusion 2) |  |  |  |  | 0.0173 µM | 0.0522 µM |
| CGCCUCAGCACAUGAGGAUCACCCAUGUACAAAAGUCCCAGGGAGGAUAUCUGCUGGUUGACUAGAGAGAAGGCCCAUACUAAC [Eternabot solution 45] (Eterna round: R96, puzzle: Exclusion NG 3) | 0.0366 µM |  |  |  | 0.0426 µM | 0.045 µM |

| Sequence | apparent KD of MS2 coat protein [1] | apparent KD of MS2 coat protein [2] | apparent KD of MS2 coat protein [3] | apparent KD of MS2 coat protein [4] | apparent KD of MS2 coat protein (input ligand: FMN 200 uM) | apparent KD of MS2 coat protein (input ligand: none) |
| --- | --- | --- | --- | --- | --- | --- |
| CGCCUGGGAGGAUAUCCAAUAUAUGACAUGAGGAUCACCCAUGUUUCCACUCGUACCUCCGGAGAAGGCCCGGCGC [Ex5 #30] (Eterna round: R97, puzzle: Exclusion 5) |  |  |  |  | 0.0231 µM | 0.0252 µM |
| CGCUAGUCAGGAUAUACGAACAUGUCAAAAGACGUGAAGGGACAUGAGGAUCACCCAUGUAGAAGGGACUAGCC [salish99_ex2_r3_011] (puzzle: Exclusion 2) |  | 0.111 µM | 0.0213 µM | 0.0258 µM |  |  |
| CGCUCACAUGAGGAUCACCCAUGUCAGGAUAUCUCAGUGCAUCCACACGGACGCAUCAAGAGAAGGGACAAAAC [Vinxlusion 3 - Jieux - Exclusion 1] (Eterna round: R97, puzzle: Exclusion 1) |  |  |  |  | 0.189 µM | 0.112 µM |
| CGCUGUUGAGGAUAUGGGCGUGGUUACAUGAGGAUCACCCAUGUGGUGUCGCGCGUGGGUCCAGAAGGCGGCGGUG [-31.8, -28.5 kcal, 16% A] (Eterna round: R97, puzzle: Exclusion 5) |  |  |  |  | 0.0335 µM | 0.0175 µM |
| CGGAGCGGCUUAGGAUAUGCUGGAAUAUCCCUGCUCCUCAGAACAUGAGGAUCACCCAUGUACUGGCAGAAGGGAGCUGCAGAG [Inxeedsoxe] (Eterna round: R96, puzzle: Exclusion NG 2) | 0.0154 µM |  |  |  | 0.0218 µM | 0.0187 µM |
| CGGCACCGAGGAUAUACAUGAGGAUCACCCAUGUUUGUUGGGCCCUUAAGAUCUACGUGUAGAAGGUGGGUCGA [Edaribi] (Eterna round: R96, puzzle: Exclusion 3) | 0.147 µM |  |  |  | 0.241 µM | 0.173 µM |
| CGGGUGCGGUGAGGAUAUCCGAAAGGAAGUGUAGGAGAAGGCACCAAGAACAUGAGGAUCACCCAUGUGACCUCAUAAGCCCGG [PowerStrip EXNG 1.9] (Eterna round: R96, puzzle: Exclusion NG 1) | 0.254 µM |  |  |  | 0.0349 µM | 0.406 µM |
| CGGUAACAUGAGGAUCACCCAUGUGAGGAUAUCGUACGUUCGUCGAUAGACGAUCGUACGAGAAGGCAUGACCG [Mat - Exclusion 1 - Eli Mod - D33] (Eterna round: R97, puzzle: Exclusion 1) |  |  |  |  | 0.0214 µM | 0.0439 µM |
| CGGUACUGAGGAUAUACAUGAGGAUCACCCAUGUGUUCAAGCUAGCGUACUGGCAUUAGUAGAAGGCGGUGCUG [JL-ex3-3.21 Brourd mod] (puzzle: Exclusion 3) |  | 0.0267 µM | 0.0146 µM | 0.0169 µM |  |  |
| CGGUCAUGAGGAUAUCGAGGUUAGUACAUGAGGAUCACCCAUGUUAUCCAGGUGUCGGUUCGAGAAGGCAUGUCCG [LRO-Ex5-12] (puzzle: Exclusion 5) |  |  | 0.287 µM |  |  |  |
| CGGUGACAUGAGGAUCACCCAUGUUAGGAUAUGACUUCGUACGCGAACAGGUAUGGAGUCAGAAGGAGCAUCCA [Eternabot (Original) Solution 45] (Eterna round: R97, puzzle: Exclusion 1) |  |  |  |  | 0.0806 µM | 0.0384 µM |
| CGGUGCUCGUGGAAACAUGAGGAUCACCCAUGUUGAGUUAGCGAGGAUAUCGGUAACACAUAUCACGAGAAGGCGCGAACCAGA [Ex NG3 #31] (Eterna round: R96, puzzle: Exclusion NG 3) | 0.0119 µM |  |  |  | 0.0233 µM | 0.016 µM |
| CGGUGCUGAGGAUAUACAUGAGGAUCACCCAUGUGUUCCGGCUAGCUGACUGGCGCUUGUAGAAGGCAGUACUG [JL-ex3-2.11 Brourd mod] (puzzle: Exclusion 3) |  |  | 0.0163 µM |  |  |  |
| CGGUGUAACGCAGGAUAUCAUCGCAACUGACGUUGAGAAGGGCGACAUGAGGAUCACCCAUGUGAUUUCUCAAUAUUAUACAUC [Prohibition 84 - Jieux - Exclusion NG 1] (Eterna round: R96, puzzle: Exclusion NG 1) | 0.0365 µM |  |  |  | 0.212 µM | 0.0598 µM |
| CGUACAAGCUUACUAUAGGACAUGAGGAUCACCCAUGUAAUUGACGUUGCAUACAAUCCGUGGAUCCCGGCUGCUCG [Eternabot (L1) Solution 15] (Eterna round: R97, puzzle: Sensor, turn-off variant 1) |  |  |  |  | 0.043 µM | 0.0516 µM |
